Tests used:
Experiment in all cases: pull-down
GST-Sed5 (yeast) = target: GST-Sed5 (yeast)
GST-Ykt6 (yeast) = target: T1, GST-Ykt6 (yeast)
T1 sequence (P36015 whole entry, looked up): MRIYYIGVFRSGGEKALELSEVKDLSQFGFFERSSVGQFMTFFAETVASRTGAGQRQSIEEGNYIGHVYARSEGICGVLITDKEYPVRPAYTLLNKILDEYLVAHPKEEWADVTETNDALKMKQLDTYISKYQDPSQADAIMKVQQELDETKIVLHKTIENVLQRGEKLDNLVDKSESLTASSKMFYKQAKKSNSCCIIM

GST-Bet1 (yeast) = target: T2, GST-Bet1 (yeast)
T2 sequence (P22804 whole entry, looked up): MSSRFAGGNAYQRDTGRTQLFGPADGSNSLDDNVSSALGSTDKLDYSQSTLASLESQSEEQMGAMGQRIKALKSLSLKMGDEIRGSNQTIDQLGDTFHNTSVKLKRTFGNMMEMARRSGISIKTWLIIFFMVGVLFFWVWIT

GST-Sft1 (yeast) = target: T3, GST-Sft1 (yeast)
T3 sequence (P43682 whole entry, looked up): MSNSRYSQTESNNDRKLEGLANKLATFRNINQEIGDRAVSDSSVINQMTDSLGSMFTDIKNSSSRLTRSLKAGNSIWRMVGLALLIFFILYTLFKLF

GST-Gos1 (yeast) = target: T4, GST-Gos1 (yeast)
T4 sequence (P38736 whole entry, looked up): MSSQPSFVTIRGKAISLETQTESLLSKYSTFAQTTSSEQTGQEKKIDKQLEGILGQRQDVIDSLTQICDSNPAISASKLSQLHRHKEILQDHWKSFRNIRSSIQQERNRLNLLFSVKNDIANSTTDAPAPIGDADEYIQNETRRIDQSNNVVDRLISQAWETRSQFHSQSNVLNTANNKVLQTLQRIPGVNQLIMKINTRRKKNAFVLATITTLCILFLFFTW

GST = target: GST

GST-Sed5 (yeast), sequence (Q01590 whole entry): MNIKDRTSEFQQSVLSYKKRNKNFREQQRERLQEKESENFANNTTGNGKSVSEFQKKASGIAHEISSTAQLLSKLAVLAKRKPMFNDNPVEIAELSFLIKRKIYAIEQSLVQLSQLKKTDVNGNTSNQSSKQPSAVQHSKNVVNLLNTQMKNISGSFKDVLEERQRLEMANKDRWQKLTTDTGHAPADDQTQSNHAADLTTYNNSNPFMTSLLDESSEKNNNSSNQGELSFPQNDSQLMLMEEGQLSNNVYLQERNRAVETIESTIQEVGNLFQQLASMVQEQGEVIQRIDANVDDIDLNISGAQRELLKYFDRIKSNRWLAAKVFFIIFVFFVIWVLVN

- percent of input recovered (GST-Sed5 (yeast)): 15%
- percent of input recovered (GST-Ykt6 (yeast)): < 1%
- percent of input recovered (GST-Bet1 (yeast)): < 1%
- percent of input recovered (GST-Sft1 (yeast)): 15%
- percent of input recovered (GST-Gos1 (yeast)): 15%
- percent of input recovered (GST): < 1%
B1: Coy1ΔTM-HA (domain or fragment)
chain: MDTSVYSHALDIWAKADLTNLQRELDADVIEIKDKETLSLNSRKSLATETKKFKKLEPEEKLNNVNKIIKQYQREIDNLTQRSKFSEKVLFDVYEKLSEAPDPQPLLQSSLEKLGKIDDSKELKEKISYLEDKLAKYADYETLKSRLLDLEQSSAKTLAKRLTAKTQEINSTWEEKGRNWKEREADLLKQLTNVQEQNKALEAKISKNIDIEGNGNEDGDQENNQKEVSTRIAEYNLVTQELETTQARIYQLEKRNEELSGALAKATSEAEKETELHAKELKLNQLESENALLSASYEQERKSTSHAINELKEQLNSVVAESESYKSELETVRRKLNNYSDYNKIKEELSALKKIEFGVNEDDSDNDIRSEDKNDNTFESSLLSANKKLQATLAEYRSKSTAQEEERNELKKSVDQLKQQIATLKEANEKLETDLEKVENVSPHFNETASMMSGVTRQMNNRTSHKMSPTSSIIGIPEDGELSGNQSTILPIVTKQRDRFRSRNMDLEKQLRQGNSEKGKLKLEISKLKGDNTKLYERIRYLQSYNNNNAPVNQSTERIDVESQYSRVYDESLHPMANFRQNELNHYKNKKLSALEKLFSSFAKVILQNKMTR
